Experimental findings from PMC8360832, “Butyryl/Caproyl-CoA:Acetate CoA-transferase: cloning, expression and characterization of the key enzyme involved in medium-chain fatty acid biosynthesis” (Bioscience Reports, 2021) are described below.

Data set [1] deals with T1, CCCCCC(=O)SCCNC(=O)CCNC(=O)[C@H](O)C(C)(C)COP(=O)(O)OP(=O)(O)OC[C@H]1O[C@@H](n2cnc3c(N)ncnc32)[C@H](O)[C@@H]1OP(=O)(O)O.
T1 construct: full-length, N-terminal His tag, pET28a, E. coli BL21 (DE3), Ni-NTA; gene 1344 bp, 49 kDa; predicted active site GGQLDFVLGAYL 342-353; homotetramer in model only
Kind of data set: purified protein. The class given is biochemical, Caproicibacterium lactatifermentans. The following applies: 200 mM sodium acetate, 100 mM potassium phosphate pH 7, 25 °C.

For data set [2], the system named is T2, CCCC(=O)SCCNC(=O)CCNC(=O)[C@H](O)C(C)(C)COP(=O)(O)OP(=O)(O)OC[C@H]1O[C@@H](n2cnc3c(N)ncnc32)[C@H](O)[C@@H]1OP(=O)(O)O.
T2 construct: full-length, N-terminal His tag, pET28a, E. coli BL21 (DE3), Ni-NTA; gene 1344 bp, 49 kDa; predicted active site GGQLDFVLGAYL 342-353; homotetramer in model only
The data set can be described thus: purified protein. The class given is biochemical, Caproicibacterium lactatifermentans. Conditions: 200 mM sodium acetate, 100 mM potassium phosphate pH 7, 25 °C.

CPB6-CoAT (CCoAT) (Caproicibacterium lactatifermentans; A351P), sequence (chain, as listed by the source A351P): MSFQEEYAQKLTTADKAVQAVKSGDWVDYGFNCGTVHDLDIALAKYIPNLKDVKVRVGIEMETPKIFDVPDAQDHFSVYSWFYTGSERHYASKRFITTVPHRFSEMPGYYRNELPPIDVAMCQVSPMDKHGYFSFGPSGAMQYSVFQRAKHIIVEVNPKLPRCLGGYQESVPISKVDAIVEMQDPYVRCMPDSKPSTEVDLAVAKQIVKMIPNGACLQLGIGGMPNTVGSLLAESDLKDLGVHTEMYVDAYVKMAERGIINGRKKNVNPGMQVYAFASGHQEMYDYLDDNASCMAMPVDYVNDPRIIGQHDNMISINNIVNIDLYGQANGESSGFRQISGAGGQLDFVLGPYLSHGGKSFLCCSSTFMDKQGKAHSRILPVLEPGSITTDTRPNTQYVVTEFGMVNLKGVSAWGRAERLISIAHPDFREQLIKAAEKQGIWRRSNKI
CPB6-CoAT (CCoAT) (Caproicibacterium lactatifermentans), sequence (chain, as listed by the source): as the sequence (chain, as listed by the source A351P) above, with P351A counted along it
CPB6-CoAT (CCoAT) (Caproicibacterium lactatifermentans; D346H), sequence (chain, as listed by the source D346H): as the sequence (chain, as listed by the source A351P) above, with D346H, P351A counted along it

Regarding “CPB6-CoAT (CCoAT) (Caproicibacterium lactatifermentans; A351P)”, in data set [1], the Michaelis constant (Km) stood at 532 ± 2.5 µM, the kcat amounted to 0.113 ± 0.02 s⁻¹ and the kcat/Km was found to be 213 ± 8.33 M⁻¹ s⁻¹. In addition, in data set [2], the Km was determined as 623 ± 4.4 µM, the kcat was found to be 0.0498 ± 0.015 s⁻¹ and the kcat/Km came to 80 ± 3.33 M⁻¹ s⁻¹.

In the case of “CPB6-CoAT (CCoAT) (Caproicibacterium lactatifermentans)”, in data set [1], the Km is on record as 359 ± 5.3 µM, the kcat worked out at 0.245 ± 0.015 s⁻¹ and the kcat/Km was 685 ± 3.33 M⁻¹ s⁻¹. Moreover, in data set [2], the Km is 537 ± 10 µM, the kcat turned out to be 0.0968 ± 0.025 s⁻¹ and the kcat/Km worked out at 180 ± 3.33 M⁻¹ s⁻¹.

For the substance “CPB6-CoAT (CCoAT) (Caproicibacterium lactatifermentans; D346H)”, in data set [1], the Km came out at 748 ± 7.9 µM, the kcat was 0.0707 ± 0.00333 s⁻¹ and the kcat/Km was determined as 94.3 ± 1.67 M⁻¹ s⁻¹. Moreover, in data set [2], the Km is on record as 747 ± 2.8 µM, the kcat was found to be 0.0217 ± 0.00333 s⁻¹ and the kcat/Km was found to be 28.8 ± 1.67 M⁻¹ s⁻¹.
